The record followed here is patent US20220281982A1.

In the experiment the target is NKG2D (human) (UniProt P26718). Nature of the experiment: cell-based or functional assay.
Sequence of UniProt P26718 (P26718 whole entry): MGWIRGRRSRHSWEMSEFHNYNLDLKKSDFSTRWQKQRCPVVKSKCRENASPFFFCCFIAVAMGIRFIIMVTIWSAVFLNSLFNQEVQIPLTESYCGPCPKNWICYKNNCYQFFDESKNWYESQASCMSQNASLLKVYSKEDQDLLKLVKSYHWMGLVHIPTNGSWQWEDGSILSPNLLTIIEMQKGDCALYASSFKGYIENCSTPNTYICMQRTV

B1: anti-NKG2D-anti-CS1 bispecific antibody (bispecific antibody, part only; not given: anti-CS1 scFv and linkers, part only)
chain, part: QVQLVESGGGLVKPGGSLRLSCAASGFTFSSYGMHWVRQAPGKGLEWVAFIRYDGSNKYYADSVKGRFTISRDNSKNTLYLQMNSLRAEDTAVYYCAKDRGLGDGTYFDYWGQGTTVTVSSQSALTQPASVSGSPGQSITISCSGSSSNIGNNAVNWYQQLPGKAPKLLIYYDDLLPSGVSDRFSGSKSGTSAFLAISGLQSEDEADYYCAAWDDSLNGPVFGGGTKLTVLPSGQAGAAASESLFVSNHAYHHHHHH
B1 returned a Ki67 expression of T cells cultured without IL-2 of 80%.
